Assay in all cases: high-throughput RNA pulldown from lysate on Ni-NTA beads; HRP: 50 mM Tris pH 8, 150 mM NaCl, 1 mM beta-mercaptoethanol, 50 ug/ml BSA, 3 ug/ml yeast RNA, 0.5% heparin; ITC and FP: Tris pH 8, 200 mM KCl, 5% glycerol; MST: 50 mM Tris pH 8, 200 mM NaCl, 1 mM DTT, BSA, heparin, 0.05% Tween 20
What all share (conditions): tags: N-terminal His-eGFP

In series [1] the target is T1, GFP-9S library array, motif 4 ND N98D (synthetic construct, N98D).
T1 chain: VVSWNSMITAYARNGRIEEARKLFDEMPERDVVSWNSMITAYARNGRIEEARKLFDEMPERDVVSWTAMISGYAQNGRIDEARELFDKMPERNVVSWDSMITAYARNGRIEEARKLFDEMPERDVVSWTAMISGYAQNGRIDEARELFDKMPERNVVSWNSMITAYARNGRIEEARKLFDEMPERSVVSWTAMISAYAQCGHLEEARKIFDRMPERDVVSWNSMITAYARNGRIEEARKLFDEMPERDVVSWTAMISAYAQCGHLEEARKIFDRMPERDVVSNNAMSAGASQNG

Series [2] concerns the target T2, GFP-9S library array, motif 4 ND N98D;D124Q (synthetic construct, N98D;D124Q).
T2 chain: T1 chain with D124Q

The target in series [3] is T3, GFP-9S library array, motif 4 ND N98E;D124I (synthetic construct, N98E;D124I).
T3 chain: T1 chain with D98E, D124I

In series [4] the target is T4, GFP-9S library array, motif 4 ND N98T (synthetic construct, N98T).
T4 chain: T1 chain with D98T

The target in series [5] is T5, GFP-9S library array, motif 4 ND N98M;D124T (synthetic construct, N98M;D124T).
T5 chain: T1 chain with D98M, D124T

Where a chain is given by its changes, count along the chain named.

As to AUUAAACGUGA (ssRNA) [IR-rpoA-A], the Kd – broadly, the equilibrium constant for the complex coming apart – in series [1] (label: 5' IRDye 800CW) came to 531 nM; in series [2] (label: 5' IRDye 800CW), 973 nM; in series [3] (label: 5' IRDye 800CW), 5140 nM; in series [4] (label: 5' IRDye 800CW), 91.7 nM; in series [5] (label: 5' IRDye 800CW), 116 nM.

AUUAGACGUGA (ssRNA) [Cy5-rpoA-G]: the Kd was found to be 55.1 nM in series [1] (label: 5' Cy5); 270 nM in series [2] (label: 5' Cy5); 3860 nM in series [3] (label: 5' Cy5); 5.06 nM in series [4] (label: 5' Cy5); 115 nM in series [5] (label: 5' Cy5).

For AUUACACGUGA (ssRNA) [Cy5-rpoA], the Kd is 395 nM in series [1] (label: 5' Cy5); 369 nM in series [2] (label: 5' Cy5); 4240 nM in series [3] (label: 5' Cy5); 97.5 nM in series [4] (label: 5' Cy5); 124 nM in series [5] (label: 5' Cy5).

With AUUAUACGUGA (ssRNA) [IR-rpoA-U], the Kd in series [1] (label: 5' IRDye 800CW) is 315 nM; in series [2] (label: 5' IRDye 800CW), 803 nM; in series [3] (label: 5' IRDye 800CW), 4070 nM; in series [4] (label: 5' IRDye 800CW) it was 23 nM; in series [5] (label: 5' IRDye 800CW), 109 nM.

(Values after publication PMC8809517, “Cofactor-independent RNA editing by a synthetic S-type PPR protein”.)
